From paper doi:10.1101/2023.03.21.532770 (bioRxiv, 2023)

Biological target: the molecule itself
Assay: crystal structure

B1: mouse 2,4-Dienoyl-CoA reductase 1 (Decr1) (enzyme, UniProt Q9CQ62 35-335, looked up)
chain: SKDAPQSKFFQPVLKPMLPPDAFQGKVAFITGGGTGLGKAMTTFLSTLGAQCVIASRNIDVLKATAEEISSKTGNKVHAIRCDVRDPDMVHNTVLELIKVAGHPDVVINNAAGNFISPSERLTPNGWKTITDIVLNGTAYVTLEIGKQLIKAQKGAAFLAITTIYAESGSGFVMPSSSAKSGVEAMNKSLAAEWGRYGMRFNIIQPGPIKTKGAFSRLDPTGRFEKEMIDRIPCGRLGTMEELANLATFLCSDYASWINGAVIRFDGGEEVFLSGEFNSLKKVTKEEWDIIEGLIRKTKGS
stoichiometry N: 4
